Test results as given in publication PMC2925305 (Journal of Nucleic Acids, 2010).

Key:
[1] = target: SUMO-1-GST-TDG (SUMO-1-conjugated GST-TDG) (UniProt Q13569)
[2] = target: SUMO-1-GST-TDG (SUMO-1-conjugated GST-TDG) (UniProt Q13569); assay: pull-down; GST pull-down: 10 nM GST or GST-fusion protein and 10 nM XPC-RAD23B with 20 ul glutathione-Sepharose in 100 ul binding buffer (20 mM sodium phosphate pH 7.4, 1 mM EDTA, 150 mM NaCl, 1 mM DTT, 5% glycerol, 0.01% Triton X-100, 100 ug/ml BSA), on ice 1 hour, eight washes, elution with 10 mM glutathione; immunoblot with anti-XPC and anti-GST
[3] = target: GST-TDG (thymine DNA glycosylase fused to glutathione S-transferase, nonmodified) (human, UniProt Q13569 1-410); assay: cell-based or functional assay
Chain of GST-TDG (thymine DNA glycosylase fused to glutathione S-transferase, nonmodified) (Q13569 whole entry, the tested form may be a part): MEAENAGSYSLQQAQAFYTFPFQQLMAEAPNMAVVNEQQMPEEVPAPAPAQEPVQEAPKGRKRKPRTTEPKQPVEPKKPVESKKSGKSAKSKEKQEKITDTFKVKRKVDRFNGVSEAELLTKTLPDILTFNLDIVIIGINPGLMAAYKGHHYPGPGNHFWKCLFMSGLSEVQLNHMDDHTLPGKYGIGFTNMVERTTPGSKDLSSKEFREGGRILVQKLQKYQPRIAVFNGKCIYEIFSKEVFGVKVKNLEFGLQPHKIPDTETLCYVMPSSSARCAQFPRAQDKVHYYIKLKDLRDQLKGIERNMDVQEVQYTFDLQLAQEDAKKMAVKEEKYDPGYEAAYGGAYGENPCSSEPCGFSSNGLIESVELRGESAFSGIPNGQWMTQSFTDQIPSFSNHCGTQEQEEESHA

[4] = target: T1, GST-SMUG1 (GST-fused SMUG1) (UniProt Q53HV7 1-270); assay: cell-based or functional assay
T1 sequence (looked up): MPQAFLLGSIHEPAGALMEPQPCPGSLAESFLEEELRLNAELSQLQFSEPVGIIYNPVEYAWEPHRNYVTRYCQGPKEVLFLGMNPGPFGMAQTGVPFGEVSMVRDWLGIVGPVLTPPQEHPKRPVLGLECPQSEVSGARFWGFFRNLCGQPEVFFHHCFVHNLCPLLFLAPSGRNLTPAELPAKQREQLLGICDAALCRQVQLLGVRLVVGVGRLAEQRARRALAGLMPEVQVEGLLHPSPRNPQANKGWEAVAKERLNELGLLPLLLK

[5] = target: T2, XPC (recombinant human XPC, alone) (human, UniProt Q01831 1-940); assay: in vitro reconstitution of the heterodimer; XPC-RAD23B-His heterodimer reconstituted in vitro from purified recombinant XPC and RAD23B-His, as described previously [17]; settings: both partners purified
T2 sequence (looked up): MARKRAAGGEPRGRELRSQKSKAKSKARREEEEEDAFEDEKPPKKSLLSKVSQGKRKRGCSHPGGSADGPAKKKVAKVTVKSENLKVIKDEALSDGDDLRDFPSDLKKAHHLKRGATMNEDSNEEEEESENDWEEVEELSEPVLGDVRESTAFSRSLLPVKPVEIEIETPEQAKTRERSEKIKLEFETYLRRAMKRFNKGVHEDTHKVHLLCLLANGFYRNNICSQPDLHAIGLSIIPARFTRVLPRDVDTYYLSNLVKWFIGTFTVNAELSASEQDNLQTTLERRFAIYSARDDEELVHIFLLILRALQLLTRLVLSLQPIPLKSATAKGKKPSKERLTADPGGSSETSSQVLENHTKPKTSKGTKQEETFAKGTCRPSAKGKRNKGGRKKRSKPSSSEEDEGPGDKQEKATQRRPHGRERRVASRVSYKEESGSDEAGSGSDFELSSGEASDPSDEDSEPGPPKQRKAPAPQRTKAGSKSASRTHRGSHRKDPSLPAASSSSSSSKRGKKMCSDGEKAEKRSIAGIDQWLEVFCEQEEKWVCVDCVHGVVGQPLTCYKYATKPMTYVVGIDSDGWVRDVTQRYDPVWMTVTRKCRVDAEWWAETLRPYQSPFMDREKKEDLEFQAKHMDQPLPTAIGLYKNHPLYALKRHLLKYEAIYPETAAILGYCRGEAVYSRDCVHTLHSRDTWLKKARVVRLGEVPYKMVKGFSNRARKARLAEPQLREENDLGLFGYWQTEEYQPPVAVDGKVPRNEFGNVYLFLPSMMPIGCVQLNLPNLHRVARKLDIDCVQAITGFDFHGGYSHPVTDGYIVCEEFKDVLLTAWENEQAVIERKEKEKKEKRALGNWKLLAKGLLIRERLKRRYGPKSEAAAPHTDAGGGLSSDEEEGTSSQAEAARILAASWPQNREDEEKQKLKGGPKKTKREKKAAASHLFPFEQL

A stimulation by XPC-RAD23B (up to 4 nM, dose-dependent) of uracil excision from G/U mismatch DNA (1.6 nM) by 2 nM SUMO-1-conjugated His-TDG, nicking assay, 120 minutes [1] of 5 fold and a fold more XPC bound than to nonmodified GST-TDG [2] of 2 fold were found for “XPC-RAD23B-His heterodimer (from UniProt Q01831 1-940; P54727 1-409) (complex)” in this work.

B1: XPC-RAD23B-His heterodimer (complex, human)
chain 1: T2 sequence (looked up)
chain 2: MQVTLKTLQQQTFKIDIDPEETVKALKEKIESEKGKDAFPVAGQKLIYAGKILNDDTALKEYKIDEKNFVVVMVTKPKAVSTPAPATTQQSAPASTTAVTSSTTTTVAQAPTPVPALAPTSTPASITPASATASSEPAPASAAKQEKPAEKPAETPVATSPTATDSTSGDSSRSNLFEDATSALVTGQSYENMVTEIMSMGYEREQVIAALRASFNNPDRAVEYLLMGIPGDRESQAVVDPPQAASTGAPQSSAVAAAAATTTATTTTTSSGGHPLEFLRNQPQFQQMRQIIQQNPSLLPALLQQIGRENPQLLQQISQHQEHFIQMLNEPVQEAGGQGGGGGGGSGGIAEAGSGHMNYIQVTPQEKEAIERLKALGFPEGLVIQAYFACEKNENLAANFLLQQNFDED
B1 was tested, and the “stimulation by XPC-RAD23B (various concentrations) of uracil excision from a 60-bp G/U mismatch DNA (1.6 nM) by 0.42 nM His-TDG, nicking assay, 30°C” value [3] was 5 fold and the “stimulation by XPC-RAD23B (up to 2 nM, dose-dependent) of uracil excision from 60-bp G/U mismatch DNA (1.6 nM) by 2.5 pM SMUG1, nicking assay, 120 minutes” value [4] was 4 fold.

B2: His-tagged RAD23B (RAD23B-His) (natural protein, human, UniProt P54727 1-409, looked up)
chain: B1 chain 2
B2: binds [5].
